Data on three molecules can be found in paper PMC7256013, “Preclinical evaluation of cationic DOTA-triarginine-lipid conjugates for theranostic liquid brachytherapy” (Nanotheranostics, 2020).

SMILES strings stand for the structures. Residues, ends and D or L forms follow the SMILES beside them. *: point of attachment. DOTA = O=C(O)CN1CCN(CC(=O)O)CCN(CC(=O)*)CCN(CC(=O)O)CC1; Stearoyl = CCCCCCCCCCCCCCCCCC(=O)*; Palmitoyl = CCCCCCCCCCCCCCCC(=O)*

A short description of series [1]: Critical micelle concentration by surface tension measurement (Du Noüy). The conditions noted are these: 0.49-250 µM. Format: physicochemical. As to the method: An Ez-pi+ surface tensiometer, with dyneprobe (diameter: 0.51 mm) and polypropylene sample cuvettes were purchased from Kibron to measure the surface tension.
(§1) D3R-C16 or D3R-C18 was dispersed in ISO-HEPES-NaCl or ISO-HEPES-Sucrose for a final concentration of 250 μM as stock solutions. Sample series were prepared by diluting the stock solutions with ISO-HEPES-NaCl or ISO-HEPES-Sucrose into concentrations of 125, 62.5, 31.25, 15.63, 7.81, 3.91, 1.95, 0.98 and 0.49 μM. The surface tension of the sample was measured by the Du Noüy method with a platinum probe. For each sample, the measurements were repeated until three consecutive measurements varied with less than 1 mN/m between them. Based on the critical micelle concentration of D3R-C18, a micellar dispersion of D3R-C18 in ISO-HEPES-Sucrose (2.0 mM) was prepared. The zeta potential of the D3R-C18 micelles was measured on a Zetasizer (Malvern).

Another series has as its system CT26 cells. Briefly: Cytotoxicity, MTS assay. Format: cell-based, murine. The note with it: 4000 cells/well, 24 h incubation with compound, then 48 h without, absorbance 490 nm. As to the method:
CT26 (murine colon carcinoma) was purchased from ATTC (Rockville) and cultured in DMEM medium supplemented with 10% fetal calf serum and pen-strep (Invitrogen Inc) at 37 °C and 5% CO2 in a humidified atmosphere. A commercial MTS assay was used to assess cytotoxicity. (Promega, CellTiter 96® AQueous One Solution Cell Proliferation Assay).
Cells were plated onto 96 well plates at a density of 4000 cells/well the day before the start of experiment. The original culture medium was replaced by medium containing increasing amounts of the indicated agents. After 24 h incubation with D3R-C16 or D3R-C18, the medium was removed and the cells were further incubated for another 48 hours. To measure metabolically active cells, 100 µL of MTS solution was added to the wells and incubated until sufficient amount of color was developed and within the linear range. The absorbance was measured at 490 nm using a microplate reader (Sunrise, Tecan).
On the technique in general: Tetrazolium dyes change colour on reduction, which living cells bring about.

The nature of series [2]: Partitioning of radiolabeled surfactant into liposomes (SEC, PD-10). Format: physicochemical. The conditions noted are these: 37 °C, 60 min, for D3R-C18 at lipid 0.36 and 0.72 mM. As to the method: Three different liposomes types were prepared: (1) POPC only, (2) POPC-POPG (9:1), (3) commercially available stealth lipid mixture (see above). POPC or the POPC-POPG mixture was freeze- dried from tert-butanol:water (9:1). The resulting lyophilizate or the stealth lipid mixture (187.5 mg) was then hydrated with ISO-HEPES-NaCl (5.0 mL) at 65 ℃ for 60 minutes by magnetic stirring. This was followed by sizing through a mini-extruder with a cut-off size of 100 nm. Size, PDI and zeta potential of all three preparations were measured (Table 1). The liposomes were diluted to lipid concentrations of 0.4, 1.0 and 4.0 mM for partitioning studies.
A dispersion of ^64Cu-D3R-C16 (200 μM) in ISO-HEPES-NaCl (100 µL) was added to POPC liposomes (900 µL, 0.4 mM). The resulting mixture was magnetically stirred at 37 ℃. Mixtures were separated by size-exclusion chromatography (SEC) at 10, 30, 60, 120 and 180 minutes after addition. An aliquot (100 µL) was applied to a PD-10 cartridge and eluted with ISO-HEPES-NaCl. […] The radioactivities of the two collected fractions and the column were measured by dose calibrator. […] The partitioning of the radiolabeled constructs into liposomes was calculated as the ratio of the radioactivity in the liposomal fraction to the total radioactivity of the liposomal fraction plus the column. […] The mixtures were analyzed by SEC by applying 200 µL to a PD-10 cartridge (see above). […]

The nature of series [3]: Micelle size (DLS) and zeta potential. The conditions noted are these: for PDI of micelles / average size of micelles (Z-average): 2.0 mM in ISO-HEPES, DLS; for average size of micelles (Z-average): broad distribution. In kind it is physicochemical. As to the method:
Liposomes were prepared using a mini-extruder (Avanti Polar Lipids) or a LIPEX Thermobarrel Pressure Extruder (10 mL, Northern Lipids). The hydrodynamic size and zeta potential of liposomes were measured by dynamic light scattering (DLS) on a Zetasizer (Malvern). Intensity weighted lognormal mean sizes are reported, unless otherwise noted. Sizes were measured in ISO-HEPES-NaCl and zeta potentials were measured in ISO-HEPES-Sucrose. Lipid concentrations were measured by ICP-MS (Thermo Scientifc, iCAP Q) by quantifying the phosphorous content of liposome samples against an internal standard of gallium (10 ppb). Sephadex G-25 PD-10 columns (8.3 mL bed volume) were purchased from GE Healthcare.
as §1

Series [4] can be described thus: in vivo. The note with it: female, Balb/C, mouse, total radioactivity.
Experimental: (§2) Mice were injected intratumorally with ^64Cu-compounds in concentrations of 40 MBq/mL. During the scan procedures, mice were anaesthetized using 3-4 % sevoflurane (Abbott Scandinavia AB, Sweden) mixed with 35% O2 and 65% medical grade air and placed on heating pads. Two mice were positioned side-by-side, separated by a 6 mm polystyrene block for PET/CT imaging using Inveon® small animal PET/CT system with CT based PET image attenuation (Siemens Medical Systems, Malvern, PA, USA). The protocol included a 12-minute PET scan, followed by a CT scan. Mice were fixed on a bed inside the scanner with the syringe placed and the needle fixed centrally in the tumor and ready for injection. Upon initiation of the first scan, intratumoral injections were done manually over 30 seconds, to investigate the initial dynamics of the tracer diffusion. Following this, two further scans were included; at six hours (5 minutes scan time) and 24 hours (12 minutes scan time) after injection. Reconstruction of the PET scans were performed using maximum a posteriori (MAP) reconstruction algorithm (voxel size: 0.815 x 0.815 x 0.796 mm; resolution (FWHM) 1.2 mm). The injection scan was reconstructed in 4 x 30 second and 10 x 60 second time frames to observe the dynamics of tracer diffusion. The two last time points were reconstructed in a single time frame.
(§3) Image analysis was performed using commercially available Inveon software (Siemens Medical Systems, Malvern, PA, USA). Regions of interest (ROIs) were manually drawn based on the co-registered PET/CT images. The following ROIs were constructed; tumors (complete volume delineated), liver, spleen, kidney, bladder, and blood. Blood activity was estimated from a constructed ROI covering the left ventricular lumen of the heart. ROIs in the left ventricle and abdominal aorta were subsequently segmented to only include the voxels displaying above 80% of maximum activity with the original ROI. From the obtained uptake values all data was calculated into %ID/g for each organ and as %ID in tumors by adjusting for CT based tumor volume. Furthermore, voxel values from tumor ROIs were used to generate histograms for substance diffusion over time in the tumor region.
(§4) Note that the first point in each plot represents the percentage of voxels with radioactivity concentrations lower than 1.6 %ID/g. These voxels are considered empty, meaning that the corresponding tumor region is non-radioactive.
A short description of series [5]: in vivo. The conditions noted are these: female, Balb/C, mouse, total radioactivity. This is another data set of the same source.
Experimental: CT26 wildtype cells (murine colon carcinoma, ATCC, Virginia, US) were cultured RPMI (Roswell Park Memorial Institute) medium supplemented with 10 % heat-inactivated Fetal Calf Serum (FCS) and 1 % Penicillin-Streptomycin (Invitrogen, Carlsbad, CA., US) retained in 5 % CO2 incubator at 37 °C. Immunocompetent female Balb/C mice (Charles River, Wilmington, MA., USA) were inoculated with tumor cells after one week of adaptation. All 20 mice included were inoculated subcutaneously with 3 x 10^5 CT26 wildtype cells in 100 µL medium on the right flank and hereafter monitored for weight and tumor size continuously for study purposes and to monitor the health of the mice. Tumor sizes were calculated from the formula of 0.52 x lenght^2 x width, as measured by external caliper. Animals were included in the study when tumors were approximately 400 mm^3.
as §2, §3
For series [6] the following is noted: mouse, in vivo.
Experimental: as §2, §3, §4
Where [7] appears, read: in ISO-HEPES-NaCl (10 mM HEPES, 150 mM NaCl, pH 7.4).
The mark [8] stands for this setting: in ISO-HEPES-Sucrose (10 mM HEPES, 300 mM sucrose, pH 7.4).

Regarding `CCCCCCCCCCCCCCCC(=O)N[C@@H](CCCNC(=N)N)C(=O)N[C@@H](CCCNC(=N)N)C(=O)N[C@@H](CCCNC(=N)N)C(=O)N[C@@H](CCCCNC(=O)CN1CCN(CC(=O)O)CCN(CC(=O)O)CCN(CC(=O)O)CC1)C(N)=O` [D3R-C16] (Palmitoyl-RRRK(DOTA)-NH2), the CMC result in series [1] (setting [7]) is “about 40 µM”. Besides, in series [1] (setting [8]), the CMC entry is “above 100 µM”. Moreover, in the series with CT26 cells, the “median lethal concentration (LC50)” value is given as “above 100 µM”. For the same molecule, the “stealth liposome partitioning, 177Lu label compared with 64Cu label” value in series [2] was “no significant difference”. For the same molecule, in series [3], the PDI of micelles came to 0.3 and the “average size of micelles (Z-average)” value is recorded as 10 nm.

On to `CCCCCCCCCCCCCCCCCC(=O)N[C@@H](CCCNC(=N)N)C(=O)N[C@@H](CCCNC(=N)N)C(=O)N[C@@H](CCCNC(=N)N)C(=O)N[C@@H](CCCCNC(=O)CN1CCN(CC(=O)O)CCN(CC(=O)O)CCN(CC(=O)O)CC1)C(N)=O` [D3R-C18] (Stearoyl-RRRK(DOTA)-NH2), for which, in series [1] (setting [7]), the CMC result is listed as “about 10 µM”. For the same molecule, in series [1] (setting [8]), the CMC entry is recorded as “above 100 µM”. Further, in the series on CT26 cells, the “median lethal concentration (LC50)” value is listed as “above 100 µM”. Further, in series [3], the PDI of micelles was found to be 0.3 and the “average size of micelles (Z-average)” value was found to be 10 nm. The “zeta potential of micelles” value in series [3] (2.0 mM micellar dispersion in ISO-HEPES-Sucrose, Zetasizer) is given as 20.7 ± 0.5 mV.

As to `CCCCCCCCCCCCCCCCCC(=O)N[C@@H](CCCNC(=N)N)C(=O)N[C@@H](CCCNC(=N)N)C(=O)N[C@@H](CCCNC(=N)N)C(=O)N[C@@H](CCCCNC(=O)CN1CCN(CC(=O)O)CCN(CC(=O)O)CCN(CC(=O)O)CC1)C(N)=O` [64Cu-D3R-C18, metal not drawn] (Stearoyl-RRRK(DOTA)-NH2), the tissue uptake (commonly the share of the injected amount in each gram of the tissue) at 5 min in the series “in vivo [4]” was < 10 %ID/g. In the series “in vivo [5]”, the tissue uptake at 15 s stood at 80 ± 66 %ID/g, the tissue uptake at 45 s is 171 ± 96 %ID/g, the tissue uptake at 75 s came out at 230 ± 58 %ID/g and the tissue uptake at 105 s was 241 ± 63 %ID/g. Besides, in the series “in vivo [5]”, the tissue uptake at 2.5 min came to 241 ± 66 %ID/g, the tissue uptake at 3.5 min turned out to be 240 ± 68 %ID/g, the tissue uptake at 0.075 h was 241 ± 69 %ID/g and the tissue uptake at 5.5 min was 240 ± 70 %ID/g. Besides, in the series “in vivo [5]”, the tissue uptake at 6.5 min stood at 240 ± 70 %ID/g, the tissue uptake at 0.125 h turned out to be 240 ± 70 %ID/g, the tissue uptake at 8.5 min was found to be 239 ± 69 %ID/g and the tissue uptake at 9.5 min was 238 ± 70 %ID/g. For the same molecule, in the series “in vivo [5]”, the tissue uptake at 0.175 h was 238 ± 70 %ID/g, the tissue uptake at 11.5 min stood at 236 ± 70 %ID/g, the tissue uptake at 6 h worked out at 49 ± 17 %ID/g and the tissue uptake at 24 h came to 23 ± 7 %ID/g. In addition, in “in vivo [5]”, the tissue uptake dose at 0.2 h was 85 ± 11 %ID. The “range of voxel radioactivities in tumor” value in series [6] is reported as 0-500 %ID/g.
